Data: publication PMC11806408

Target: N‐10/C‐9 fusion PD (human)
Experiment: SPR; PDs of BMP‐9, BMP‐10 and N‐10/C‐9 fusion PD immobilised at 450 RUs on a CM5 chip by amine coupling; BMP‐10 GF 0 to 80 nM, 1:2 serial dilutions, 1× HBS‐EP; 1:1 model with mass transfer; apparent KD = kd/ka

B1: BMP‐10 GF (R&D Systems #2926‐BP‐025/CF) (ligand)
chain: NAKGNYCKRTPLYIDFKEIGWDSWIIAPPGYEAYECRGVCNYPLAEHLTPTKHAIIQALVHLKNSQKASKACCVPTKLEPISILYLDKGVVTYKFKYEGMAVSECGCR
Kd: 0.0132 µM | koff: 0.0032 s⁻¹ | kon: 220000 M⁻¹ s⁻¹
